{"source": "paper PMC9925492", "about": "“Reduction of phenolics in faba bean meal using recombinantly produced and purified Bacillus ligniniphilus catechol 2,3-dioxygenase” (Bioresources and Bioprocessing, 2023)", "test_system": "Cc1cccc(O)c1O", "test": "purified protein", "details": "10 mM Mn2+, 50 mM phosphate pH 7.5, 32.5 °C", "data": [{"substance": "BLC23O (Halalkalibacterium ligniniphilum)", "values": [{"measurement": "Km", "value": "379 ± 86", "unit": "µM"}, {"measurement": "kcat", "value": "0.13 ± 0.01", "unit": "s⁻¹"}]}]}
